{"source": "patent US20110239311", "proteins": {"B1": {"name": "recombinant PKCzeta (enzyme, UniProt Q05513 1-592, looked up, species assumed)", "Protein kinase C zeta type": "MPSRTGPKMEGSGGRVRLKAHYGGDIFITSVDAATTFEELCEEVRDMCRLHQQHPLTLKWVDSEGDPCTVSSQMELEEAFRLARQCRDEGLIIHVFPSTPEQPGLPCPGEDKSIYRRGARRWRKLYRANGHLFQAKRFNRRAYCGQCSERIWGLARQGYRCINCKLLVHKRCHGLVPLTCRKHMDSVMPSQEPPVDDKNEDADLPSEETDGIAYISSSRKHDSIKDDSEDLKPVIDGMDGIKISQGLGLQDFDLIRVIGRGSYAKVLLVRLKKNDQIYAMKVVKKELVHDDEDIDWVQTEKHVFEQASSNPFLVGLHSCFQTTSRLFLVIEYVNGGDLMFHMQRQRKLPEEHARFYAAEICIALNFLHERGIIYRDLKLDNVLLDADGHIKLTDYGMCKEGLGPGDTTSTFCGTPNYIAPEILRGEEYGFSVDWWALGVLMFEMMAGRSPFDIITDNPDMNTEDYLFQVILEKPIRIPRFLSVKASHVLKGFLNKDPKERLGCRPQTGFSDIKSHAFFRSIDWDLLEKKQALPPFQPQITDDYGLDNFDTQFTSEPVQLTPDDEDAIKRIDQSEFEGFEYINPLLLSTEESV"}}, "test_system": "GST-NR2F6 fusion protein, wild-type, full-length (purified recombinant)", "sequence (chain, as listed by the source)": "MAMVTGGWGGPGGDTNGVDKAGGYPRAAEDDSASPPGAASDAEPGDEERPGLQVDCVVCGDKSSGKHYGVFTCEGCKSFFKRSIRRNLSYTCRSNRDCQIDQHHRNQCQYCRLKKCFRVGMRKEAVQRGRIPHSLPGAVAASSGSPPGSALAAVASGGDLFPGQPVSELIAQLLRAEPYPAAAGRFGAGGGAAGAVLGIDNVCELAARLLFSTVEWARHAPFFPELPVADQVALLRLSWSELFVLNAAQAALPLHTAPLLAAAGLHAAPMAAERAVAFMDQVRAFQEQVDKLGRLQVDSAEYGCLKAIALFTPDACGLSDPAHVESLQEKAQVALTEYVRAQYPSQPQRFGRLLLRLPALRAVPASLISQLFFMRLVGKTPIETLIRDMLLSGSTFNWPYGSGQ", "data": [{"protein": "B1", "values": [{"measurement": "in vitro protein kinase assay (32P incorporation into GST-NR2F6)", "result": "(but not PKCzeta or PKA) were able to phosphorylate recombinant NR2F6 in vitro"}]}]}
